Patent US20120039802A1 (published 2012)

Experiments:
[1] = target: T1, cMet-Fc fusion protein (extracellular domain of the cMet receptor expressed as an Fc-fusion protein) (human, UniProt P08581 25-932); assay: phage ELISA on cMet-Fc, competitor HGF 100 ng/mL
T1 construct: extracellular domain; also called soluble cMet-Fc-fusion protein; soluble cMet receptor; not shown: Fc part
Outline: (§1)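 Plates coated with 0.5 μg/mL cMet-Fc, with TRAIL-Fc as background, then blocked with 3% BSA. Bound phage detected with HRP anti-M13 antibody.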

[2] = target: T1, cMet-Fc fusion protein (extracellular …); assay: phage ELISA, cMet-Fc vs TRAIL-Fc
Outline: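 Plates coated overnight at 4 C with 0.5 μg/mL cMet-Fc, or TRAIL-Fc as background, were blocked with 3% BSA in PBST. Peptide-displaying phage were bound 2 h at room temperature. Bound phage were detected with HRP-conjugated anti-M13 antibody.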

[3] = target: T2, human cMet expressed on 3T3 cells (human, UniProt P08581 25-1390); assay: whole cell phage ELISA, 3T3 human cMet vs 3T3
T2 construct: whole, on cells; cells fixed with glutaraldehyde; also called cell surface-expressed human cMet; 3T3 cells that over-express human cMet
Outline: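 3T3 cells over-expressing human cMet, compared against parental 3T3, seeded at 10⁵ per well and fixed with 0.1% glutaraldehyde for 12 min at 37 C. Blocked peptide-displaying phage bound for 1 h at room temperature. After PBST washes, bound phage was detected with HRP-conjugated anti-M13 antibody.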

[4] = target: T1, cMet-Fc fusion protein (extracellular …); assay: phage ELISA on cMet-Fc, competitor HGF 500 ng/mL
Outline: as §1

T1 sequence (P08581 25-932): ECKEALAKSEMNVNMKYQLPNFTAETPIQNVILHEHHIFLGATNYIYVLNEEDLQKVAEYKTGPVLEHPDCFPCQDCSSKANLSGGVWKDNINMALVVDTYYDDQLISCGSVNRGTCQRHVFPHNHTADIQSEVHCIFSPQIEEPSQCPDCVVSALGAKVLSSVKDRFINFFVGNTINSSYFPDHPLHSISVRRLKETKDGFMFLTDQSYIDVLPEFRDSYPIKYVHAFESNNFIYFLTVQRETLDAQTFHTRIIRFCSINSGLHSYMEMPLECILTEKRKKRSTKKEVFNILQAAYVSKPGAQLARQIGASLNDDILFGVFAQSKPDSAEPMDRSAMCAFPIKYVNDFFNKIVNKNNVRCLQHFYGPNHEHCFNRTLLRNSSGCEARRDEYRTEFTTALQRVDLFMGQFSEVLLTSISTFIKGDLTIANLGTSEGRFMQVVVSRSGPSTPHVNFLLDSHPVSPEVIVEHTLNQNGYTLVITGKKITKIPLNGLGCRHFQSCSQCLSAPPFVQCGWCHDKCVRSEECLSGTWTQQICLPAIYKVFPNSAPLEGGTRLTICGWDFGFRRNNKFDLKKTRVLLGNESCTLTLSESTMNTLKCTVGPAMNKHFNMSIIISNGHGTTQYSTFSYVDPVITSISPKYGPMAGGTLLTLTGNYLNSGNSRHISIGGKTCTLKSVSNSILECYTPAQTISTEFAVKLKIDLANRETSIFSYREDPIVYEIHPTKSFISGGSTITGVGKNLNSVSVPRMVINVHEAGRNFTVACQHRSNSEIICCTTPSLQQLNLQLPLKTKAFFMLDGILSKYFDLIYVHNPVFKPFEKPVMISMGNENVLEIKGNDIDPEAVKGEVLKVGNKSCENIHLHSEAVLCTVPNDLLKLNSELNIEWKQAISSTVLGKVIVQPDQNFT
T2 sequence (P08581 25-1390): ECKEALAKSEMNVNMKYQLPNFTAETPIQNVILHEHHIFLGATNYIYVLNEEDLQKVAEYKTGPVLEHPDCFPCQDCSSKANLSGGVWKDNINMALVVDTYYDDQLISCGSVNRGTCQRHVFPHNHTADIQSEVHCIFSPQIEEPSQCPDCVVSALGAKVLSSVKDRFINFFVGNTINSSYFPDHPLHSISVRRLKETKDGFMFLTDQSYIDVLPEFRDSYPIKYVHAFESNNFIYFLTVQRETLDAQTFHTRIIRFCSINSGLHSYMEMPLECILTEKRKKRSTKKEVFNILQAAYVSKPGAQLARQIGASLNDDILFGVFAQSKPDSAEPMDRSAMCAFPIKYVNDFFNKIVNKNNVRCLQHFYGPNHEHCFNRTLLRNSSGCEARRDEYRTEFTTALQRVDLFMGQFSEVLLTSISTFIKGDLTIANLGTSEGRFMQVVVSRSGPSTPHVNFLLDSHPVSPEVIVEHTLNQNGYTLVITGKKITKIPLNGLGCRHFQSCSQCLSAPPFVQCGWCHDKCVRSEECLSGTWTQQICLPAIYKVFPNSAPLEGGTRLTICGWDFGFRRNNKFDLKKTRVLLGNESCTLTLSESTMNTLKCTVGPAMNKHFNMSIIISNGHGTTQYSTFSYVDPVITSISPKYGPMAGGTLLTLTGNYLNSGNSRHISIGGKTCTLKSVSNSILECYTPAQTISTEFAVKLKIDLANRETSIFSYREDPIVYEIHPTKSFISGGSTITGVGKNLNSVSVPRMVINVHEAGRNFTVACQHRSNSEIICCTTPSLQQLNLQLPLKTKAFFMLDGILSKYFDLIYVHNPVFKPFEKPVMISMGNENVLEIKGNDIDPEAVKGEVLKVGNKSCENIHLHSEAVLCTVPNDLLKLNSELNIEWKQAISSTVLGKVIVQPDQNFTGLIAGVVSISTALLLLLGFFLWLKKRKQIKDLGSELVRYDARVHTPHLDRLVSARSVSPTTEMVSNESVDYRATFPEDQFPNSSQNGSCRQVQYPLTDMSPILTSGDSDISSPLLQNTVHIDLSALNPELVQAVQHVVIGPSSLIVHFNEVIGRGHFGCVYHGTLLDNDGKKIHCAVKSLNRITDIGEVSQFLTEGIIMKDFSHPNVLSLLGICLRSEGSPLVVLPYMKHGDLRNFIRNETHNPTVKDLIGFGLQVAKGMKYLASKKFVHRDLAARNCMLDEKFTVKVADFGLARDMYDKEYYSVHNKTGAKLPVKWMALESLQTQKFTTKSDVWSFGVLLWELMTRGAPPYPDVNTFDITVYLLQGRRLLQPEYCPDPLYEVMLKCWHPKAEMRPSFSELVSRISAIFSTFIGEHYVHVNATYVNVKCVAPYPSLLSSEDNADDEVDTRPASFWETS

| Binder | % of binding in the absence of HGF [1] [%] | Protein ELISA (fold over background) [2] [fold] | WC ELISA (fold over background) [3] [fold] | % of binding in the absence of HGF [4] [%] |
| --- | --- | --- | --- | --- |
| AQDPGFSKHSMGHGYPSKMNWG [115-G02 peptide-displaying phage (SEQ ID NO: 471)] | 59 | 3.7 | 1.27 | 0 |
| AQWNQWDEFMWFLNPPPIGLMW [151-B08 peptide-displaying phage (SEQ ID NO: 480)] | 102 | 3.3 | 1.23 | 368 |
| AQPYYELQDADMLLVVALLSTG [94-F07 peptide-displaying phage (SEQ ID NO: 458)] | 106 | 6.1 | 1.2 | 104 |
| AQRWSSPGMSQSFVLEWKWNDN [118-A08 peptide-displaying phage (SEQ ID NO: 453)] | 85 | 11.3 | 1.3 | 74 |
| AQHWDYDSGSDFWFPVFFLEHH [79-B02 peptide-displaying phage (SEQ ID NO: 475)] | 102 | 3.5 | 1.3 | 86 |
| AQAEWVITSEEFYWKMADFGPP [75-B12 peptide-displaying phage (SEQ ID NO: 478)] | 95 | 3.4 | 1.23 | 108 |
| AQKETWEFFDIVYGSGWKFNSP [116-H02 peptide-displaying phage (SEQ ID NO: 466)] | 84 | 4 | 1.23 | 72 |
| AQHGYLSPLKQYQMSHVEFWTY [94-A06 peptide-displaying phage (SEQ ID NO: 476)] | 84 | 3.5 | 1.17 | 96 |
| AQAYEWWADESIFNHGYYWGHQ [94-B08 peptide-displaying phage (SEQ ID NO: 470)] | 111 | 3.8 | 1.2 | 121 |
| AGLYLCDLSIMYCFFQGT [489-A04 peptide-displaying phage (SEQ ID NO: 015)] | 30 | 4.3 | 1.33 | 13 |
| AQVGSPMLPSWFSFEANWSS [95-A11 peptide-displaying phage (SEQ ID NO: 456)] | 109 | 7 | 1.3 | 108 |
| AGWWSCQWELNVCIWQGT [484-D08 peptide-displaying phage (SEQ ID NO: 016)] | 105 | 4.1 | 1.33 | 90 |
| AQEWEREYFVDGFWGSWFGIPH [130-E10 peptide-displaying phage (SEQ ID NO: 472)] | 100 | 3.7 | 1.8 | 92 |
| AQVPDWLSAVVIEKLIEYGMMV [93-C08 peptide-displaying phage (SEQ ID NO: 464)] | 101 | 4.4 | 1.37 | 96 |
| GSYYDCREFQCNKPAP [465-A06 peptide-displaying phage (SEQ ID NO: 002)] | 56 | 4.4 | 1.33 | 32 |
| AQSPYIFPIDDSGRQIFVIQWG [76-D09 peptide-displaying phage (SEQ ID NO: 463)] | 79 | 4.4 | 1.23 | 87 |
| AQELFQILEKQMWSDFMEWATP [15-D02 peptide-displaying phage (SEQ ID NO: 474)] | 97 | 3.6 | 1.23 | 118 |

| Binder | % of binding in the absence of HGF [1] [%] | Protein ELISA (fold over background) [2] [fold] | WC ELISA (fold over background) [3] [fold] | % of binding in the absence of HGF [4] [%] |
| --- | --- | --- | --- | --- |
| AGYYHCIDDFPQCKWMGT [482-D02 peptide-displaying phage (SEQ ID NO: 017)] | 66 | 3.9 | 1.37 | 44 |
| AQDNTADQMFNGFHVLAMYMV [117-E09 peptide-displaying phage (SEQ ID NO: 481)] | 109 | 3.3 | 1.37 | 102 |
| AQYDTWVFQFIHEVPGELVAMQ (also called linear isolate 94-E08) [94-E08 peptide-displaying phage (SEQ ID NO: 454)] | 102 | 8.9 | 1.23 | 74 |
| AQEWQTWTWNMIEVISENKTP [117-F03 peptide-displaying phage (SEQ ID NO: 468)] | 104 | 3.8 | 1.4 | 93 |
| AQFDRYWHFAWMDVSFSSGQSG [92-B05 peptide-displaying phage (SEQ ID NO: 465)] | 94 | 4.3 | 1.2 | 94 |
| AQFPLEFDVPNFSYHWLVSFNP [118-C07 peptide-displaying phage (SEQ ID NO: 460)] | 100 | 5.6 | 1.27 | 84 |
| AQHSVQRQMDVWMPVQFMAGFT [02-B08 peptide-displaying phage (SEQ ID NO: 467)] | 84 | 3.9 | 1.3 | 96 |
| AQMYQTPDGVIGKFVDWMFN [119-F06 peptide-displaying phage (SEQ ID NO: 455)] | 4 | 8 | 1.33 | 27 |
| AQFSGLVMYGRTHEVQWTFGSM [94-G02 peptide-displaying phage (SEQ ID NO: 477)] | 108 | 3.5 | 1.3 | 76 |
| AQVGTAEAIMFSDVEDTGVHKF [103-G08 peptide-displaying phage (SEQ ID NO: 459)] | 140 | 5.7 | 1.33 | 95 |
| AQWPHDGLVHWGEVIMLRF [117-F04 peptide-displaying phage (SEQ ID NO: 479)] | 93 | 3.3 | 1.37 | 91 |
| AQGFELWVDHTRNFFIAISP [127-A07 peptide-displaying phage (SEQ ID NO: 469)] | 101 | 3.8 | 1.2 | 107 |
| AQDLKPWTAGWEPPWLWTDRGP [104-C09 peptide-displaying phage (SEQ ID NO: 461)] | 64 | 5 | 1.3 | 50 |
| AQMGHHWDVQWDYKLFHVARGD [136-D01 peptide-displaying phage (SEQ ID NO: 473)] | 85 | 3.7 | 1.23 | 149 |
| AQHQYGQMMVLHIQYDMGEFIP [117-F08 peptide-displaying phage (SEQ ID NO: 462)] | 102 | 4.5 | 1.27 | 270 |
| AQNAVVPPPMLWSIYWDYGREG [94-H04 peptide-displaying phage (SEQ ID NO: 457)] | 150 | 7 | 1.37 | 101 |
